# B1: CelM (Acetivibrio thermocellus) (protein)
# chain: MEEEDMFDLLKKFTGIVGVSGNEEEIREAIIEEIKECVDEIKVDTLGNLIAVKKGKGKKIMVAAHMDEIGVMVTYIDDKGFLRFSAVGGVSRYDCIGQRVKFKNGVVGAVYYEEKLEDMKNLQLSKMYIDIGARSREEALKMVNIGDVACFVGDAVLQGDTVISKALDNRSGCAVVVKAIKELKKTDNEIYFVFTVQEEVGLRGAKTAAFSIKPDIAIAVDVTMTGDTPESHPMEVKCGGGPAIKVKDRSVICHPEVRKLLEESAKRNNIPYQLEILEAGGSDPGSIHLTAGGIPSGAISIPVRYVHSPVETASMSDINNAVKLLVEAIC
# notes: recombinant dodecameric CelM bearing a C-terminal hexahistidine tag
# B2: TmPep1050 (Thermotoga maritima MSB8) (protein)
# chain: MKELIRKLTEAFGPSGREEEVRSIILEELEGHIDGHRIDGLGNLIVWKGSGEKKVILDAHIDEIGVVVTNVDDKGFLTIEPVGGVSPYMLLGKRIRFENGTIGVVGMEGETTEERQENVRKLSFDKLFIDIGANSREEAQKMCPIGSFGVYDSGFVEVSGKYVSKAMDDRIGCAVIVEVFKRIKPAVTLYGVFSVQEEVGLVGASVAGYGVPADEAIAIDVTDSADTPKAIKRHAMRLSGGPALKVKDRASISSKRILENLIEIAEKFDIKYQMEVLTFGGTNAMGYQRTREGIPSATVSIPTRYVHSPSEMIAPDDVEATVDLLIRYLGA
# notes: recombinant TmPep1050 (TM1050 ORF)
# What was measured:
# Test in all cases: Michaelis-Menten kinetics of pNA hydrolysis (Km)
# Conditions in all cases: Co2+
# [1] = substrate: CSCC[C@H](N)C(=O)Nc1ccc([N+](=O)[O-])cc1; assay type: biochemical, Acetivibrio thermocellus
# [2] = substrate: CC[C@H](C)[C@H](N)C(=O)Nc1ccc([N+](=O)[O-])cc1; assay type: biochemical, Acetivibrio thermocellus
# [3] = substrate: CC(C)C[C@H](N)C(=O)Nc1ccc([N+](=O)[O-])cc1; assay type: biochemical, Acetivibrio thermocellus
# [4] = substrate: CSCC[C@H](N)C(=O)Nc1ccc([N+](=O)[O-])cc1; assay type: biochemical, Thermotoga maritima
# [5] = substrate: CC[C@H](C)[C@H](N)C(=O)Nc1ccc([N+](=O)[O-])cc1; assay type: biochemical, Thermotoga maritima
# [6] = substrate: CC(C)C[C@H](N)C(=O)Nc1ccc([N+](=O)[O-])cc1; assay type: biochemical, Thermotoga maritima
Protein,Km [1],kcat [1],kcat/Km [1],Km [2],kcat [2],kcat/Km [2],Km [3],kcat [3],kcat/Km [3],Km [4],kcat [4],kcat/Km [4],Km [5],kcat [5],kcat/Km [5],Km [6],kcat [6],kcat/Km [6]
B1,2900 ± 150 µM,0.072 ± 0.006 s⁻¹,24.8 M⁻¹ s⁻¹,2800 ± 200 µM,0.11 ± 0.01 s⁻¹,39.3 M⁻¹ s⁻¹,3500 ± 400 µM,0.4 ± 0.03 s⁻¹,114 M⁻¹ s⁻¹,,,,,,,,,
B2,,,,,,,,,,650 ± 50 µM,0.009 ± 0.001 s⁻¹,13.8 M⁻¹ s⁻¹,1900 ± 200 µM,0.059 ± 0.008 s⁻¹,31.1 M⁻¹ s⁻¹,4000 ± 300 µM,0.253 ± 0.019 s⁻¹,63.2 M⁻¹ s⁻¹

# — publication PMC3511314, “Functional Characterization of Two M42 Aminopeptidases Erroneously Annotated as Cellulases” (PLoS ONE, 2012)
